Read-outs that look alike come from different tables or passages of the source.
What was measured:
[1] = target: 25 amino acid epitope of CLIP (CD74); experiment: BLI (Octet), biotinylated peptide on streptavidin tip, scaffold in solution
[2] = target: T1, CYSLTR2 N-terminal disordered region, MERKFMSLQPSISVSEMEPNGTFSNNNSRNCTIENFKREFFP (biotin (position not given)); experiment: ELISA fluorescence at 10,000 nM peptide divided by the no-scaffold control; the control bar is marked 1x
T1 construct: also called CysLT2; CysLT2r
T1 peptide: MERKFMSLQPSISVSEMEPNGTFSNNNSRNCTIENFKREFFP
Protocol: (§1) Binder proteins were coated on the surface of a high binding capacity 96 well plate by incubating 100 μL of protein at […] in a coating solution (10 mM Tris pH 8.8, 50 mM NaCl), overnight at 4 C. The next morning, the coating solution was aspirated out and wells were washed once with 300 μL ELISA wash buffer (lx PBS, 0.05% Tween-20) and solution was aspirated out. The wells were blocked with 200 μL of a blocking buffer (1×PBS, 0.05% Tween-20, 3% BSA) at room temperature for 1 hour. After one hour, the blocking solution was aspirated out and 100 μL of biotinylated polypeptide in a binding buffer (1×PBS, 0.05% Tween-20, 0.5% BSA) at various concentrations was added to the appropriate well and incubated for 20 minutes. Peptide solution was aspirated out after 20 minutes and wells were washed 5 times with 300 μL of ELISA wash buffer. To detect the biotinylated peptide, 100 μL of streptavidin-HRP (50 ng/mL) was added to each well and incubated for 1 hour. The wells were subsequently washed 5 times with 300 μL of ELISA wash buffer. 100 μL of QuantaBlu Fluorogenic Peroxidase substrate solution was added to each well, incubated for 30 minutes and reaction stopped by adding 100 μL of stop solution. Fluorescent signal from each well was measured using a Biotek Cytation5 plate reader by exciting the fluorophore at […] and measuring emission at 420 nm. Fluorescent signals were plotted as a function of polypeptide concentration.

[3] = target: T2, CYSLTR2 Epitope SISVSEMEPNGTFSNNNSRNC (N-terminally biotinylated); experiment: ELISA, scaffold coated on the plate, biotinylated peptide titrated, streptavidin-HRP fluorescence
T2 peptide: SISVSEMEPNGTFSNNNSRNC

[4] = target: T3, Urotensin-2 receptor (UR-II-R) disordered region, MALTPESPSSFPGLAATGSSVPEPPGGPNATLNSSWASPTEPSSLEDLVATGTI (biotin (position not given)); experiment: modified sandwich ELISA (scaffold coated, biotinylated peptide, streptavidin-HRP fluorescence)
T3 construct: also called Urotensin II R; GPCR2 (Urotensin II)
T3 peptide: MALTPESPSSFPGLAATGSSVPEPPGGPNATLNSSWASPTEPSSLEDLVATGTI

[5] = target: T4, KAAG1 disordered region peptide, PGAAAAHLPRWPPPQLAASRREA (biotin (position not given)); experiment: ELISA, scaffold coated on the plate, biotinylated peptide titrated, streptavidin-HRP fluorescence
T4 peptide: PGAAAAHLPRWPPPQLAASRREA
Protocol: as §1

[6] = target: T5, CD74 disordered region peptide (CLIP), PPKPVSKMRMATPLLMQALPMGALP (biotin (position not given)); experiment: as above
T5 peptide: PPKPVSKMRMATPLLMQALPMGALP
Protocol: as §1

[7] = target: T2, CYSLTR2 Epitope SISVSEMEPNGTFSNNNSRNC; experiment: as above
Protocol: as §1

MERKFMSLQPSISVSEMEPNG = target: T6, MERKFMSLQPSISVSEMEPNG (N-terminal biotin); experiment: as above
T6 construct: First of three overlapping 21-mers of the CYSLTR2 N-terminal disordered region
T6 peptide: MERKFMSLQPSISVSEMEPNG
Protocol: as §1

[8] = target: T7, TNFRSF13B disordered region peptide, LPPELRRQRSGEVENNSDNSGRYQ (biotin (position not given)); experiment: as above
T7 peptide: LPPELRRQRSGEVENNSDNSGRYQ
Protocol: as §1

[9] = target: T8, KCNA6 Epitope QQQEQQPASGGGGQNGQQAMS (biotin (position not given)); experiment: as above
T8 peptide: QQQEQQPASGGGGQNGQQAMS
Protocol: as §1

[10] = target: T9, CD40LG Epitope NKEETKKENSFEMQKGDQNPQIAAH (biotin (position not given)); experiment: as above
T9 peptide: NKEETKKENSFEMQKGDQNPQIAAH
Protocol: as §1

[11] = target: T10, GMERKFMSLQPSISVSEMEPNGTFSNNNSRNCTIENFKREFFP (biotinylated, position not given); experiment: as above
T10 peptide: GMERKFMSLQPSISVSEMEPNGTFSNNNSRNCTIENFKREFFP
Protocol: as §1

[12] = target: T4, KAAG1 disordered region peptide, …; experiment: modified sandwich ELISA (scaffold coated, biotinylated peptide, streptavidin-HRP fluorescence)
[13] = target: T5, CD74 disordered region peptide (CLIP), …; experiment: modified sandwich ELISA, fluorescence grade (key: >400000, Strong binding)
[14] = target: T1, CYSLTR2 N-terminal disordered region, …; experiment: modified sandwich ELISA (scaffold coated, biotinylated peptide, streptavidin-HRP fluorescence)
[15] = target: T4, KAAG1 disordered region peptide, …; experiment: as above
[16] = target: T1, CYSLTR2 N-terminal disordered region, …; experiment: modified sandwich ELISA (FIGS. 30A and 30B)
Protocol: as §1, with “Fluorescent signals were plotted as a function of polypeptide concentration.” left out

[17] = target: T3, Urotensin-2 receptor (UR-II-R) …; experiment: ELISA, scaffold coated on the plate, biotinylated peptide titrated, streptavidin-HRP fluorescence
Protocol: as §1, with “Fluorescent signals were plotted as a function of polypeptide concentration.” left out

[18] = target: T4, KAAG1 disordered region peptide, …; experiment: modified sandwich ELISA, fluorescence grade (key: 50000 < x < 100000, Weak binding)
[19] = target: T1, CYSLTR2 N-terminal disordered region, …; experiment: as above

B1: S005 (designed binder)
chain: MIKEEHVIIQAEFYLNPDQSGEFMFDFDGDEIFHVDMAKKETVWRLEEFGRFASFEAQGALANIAVDKANLEIMTKRSNYTPMGDTRPRFLWQLKFECHFFNGTERVRLLERCIYNQEESVRFDSDVGEYRAVTELGRPDAEYWNSQKDLLEQRRAAVDTYCRHNYGVGESFTVQGGSHHHHHHLE
notes: Engineered scaffold derived from MHC II; derived from S007 by removing the immunoglobulin unit; also called v1.1; scaffold v1.1
- Kd [1]: 840 nM
- Relative Binding [2]: 18.5 x
- Relative Binding (Fold Change) [2]: 18.5 x
- binding result [3]: binds
- binding result [4]: no binding (tested: <5000 (fluorescence signal, key))
- binding result [5]: binds
- EC50 (read off the curve) [6]: ~300 nM

B2: S177 (designed binder)
chain: MIKEEHVINQAEYYLNPDQSGEFKFDFDGDEIFHVDMAKKETVWRLEEFGRFASFEAQGALAHIAVDKANLEIMTKRSNYTPMGDTRPRFLWQLKYECHFFNGTERVRLNERCIYNQEESVRFDSDVGEYRAVTELGRPDAEQWNSQKDHLEQRRAAVDTKCRHNYGVGESFTVQGGSHHHHHHLE
notes: Computationally derived from S005; 21.92 kDa
- binding result [7]: binds
- binding result (MERKFMSLQPSISVSEMEPNG): no binding (tested: 10000 nM)
- binding result [8]: no binding (tested: 10000 nM)
- binding result [9]: no binding (tested: 10000 nM)
- binding result [5]: no binding (tested: 10000 nM)
- binding result [10]: no binding (tested: 10000 nM)
- binding result [11]: binds

B3: S098 (designed binder)
chain: PENYLFQGRQECNGTQFLERYIYNREEFVRFDEFRAVGRPDEEYWNSQKDILEEERAVPDRMCRHNYELGGPMTLQRRVQPRVNIKADHVSTYAAFVQRPFMFEFDEDEMFYVDLHLEEFGQAFSFEAQGGLANIAILNNNLNTRSNHTQATNDPPHHHHHHLE
- binding result [12]: no binding (tested: <5000 (fluorescence signal, key))
- binding result [4]: no binding (tested: <5000 (fluorescence signal, key))

B4: S084 (designed binder)
chain: IKEEHVIQQSEYYTNPDQSGEFQFDFDGDEIFHVDMAKKETVWRLEEFGRFASFEAQGALANIAVDKANLEIMTKRSNYTGDTRPRFNWQLKFECHFFNGTERVRLLERCNYNQEESVRFDSDVGEYRAVTELGRPDAEYWNSQKDLLEQRRAAVDTYCRHNYGVGESFTVQRRGGSHHHHHHLE
- fluorescent signal [13]: > 400000 fluorescentsignal
- binding result [14]: no binding (tested: <5000 (fluorescence signal, key))
- binding result [15]: no binding (tested: <5000 (fluorescence signal, key))

B5: S090 (designed binder)
chain: IKEEHSIRQNEMYLNPDQSGLFEFHLDGQPIFRVDMQKKRTKWQLEEFGRFASFEAQGALANIAVDKANLEIMTKRSNQSEAGSHSWQLIFVCEFHEGTESVRLSERCYYNQELSVSFNSDVGEYRAVTELGRPDAEYWNSQKDLLEQRRAAVDTYCRHNYGVGESFTVQRRGGSHHHHHHLE
notes: Rationally designed from v1.1 (S005); By SEC it is a mixture of monomers, dimers and multimers, at least 50% monomer; also called v1.2; scaffold v1.2
- fold higher affinity compared to a non-specific protein binder [16]: > 65 fold
- binding result [17]: binds
- Relative Binding [2]: 37.2 x
- Relative Binding (Fold Change) [2]: 37.2 x
- binding result [7]: binds
- binding result (MERKFMSLQPSISVSEMEPNG): no binding (tested: 10000 nM)
- binding result [5]: binds
- EC50 (read off the curve) [6]: ~500 nM

B6: S055 (designed binder)
chain: GSHSMRYNYTSVSRPGRGEPRFLSEGHVDDTQFVRFDSDAASPREEPRAPWIEQEGPEYWDRNTQIYKAQAQTDRESLRNLRGYYNQSEAGSHTLQSIYGCDVGPDGRLLRGHDQYYYDGKDYISLNEDLRSWTAADTAAQITQRKWEAAREAEQRRAYLEGECVEWLRRYLENGKDKLERADGGSHHHHHHLE
- fluorescent signal [18]: 50000 to 100000 fluorescentsignal
- fluorescent signal [13]: > 400000 fluorescentsignal

B7: S056 (designed binder)
chain: GSHSMRYNYTSVSRPGRGEPRFLSEGHVDGQPFVRFDSDAASPREEPRAPWIEQEGPEYWDRNTQIYKAQAQTDRESLRNLRGYYNQSEAGLHSLNSIYVCDVGPDGRLLRGHDHYYYDGELYISLNEDLRSWTAADTAAQITQRKWEAAREAEQRRAYLEGECVEWLRRYLENGKDKLERADGGSHHHHHHLE
- fluorescent signal [18]: 50000 to 100000 fluorescentsignal
- fluorescent signal [13]: > 400000 fluorescentsignal

B8: S078 (designed binder)
chain: GDTRPRFLWQLKFECHFFNGTERVRLLERCIYNQEESVRFDSDVGEYRAVTELGRPDAEYWNSQKDLLEQRRAAVDTYCRHNYGVGESFTVQRRSGGGIKEEHVIIQAEFYLNPDQSGEFMFDFDGDEIFHVDMAKKETVWRLEEFGRFASFEAQGALANIAVDKANLEIMTKRSNYTGGSHHHHHHLE
- fluorescent signal [19]: 50000 to 100000 fluorescentsignal
- fluorescent signal [13]: > 400000 fluorescentsignal
- binding result [15]: no binding (tested: <5000 (fluorescence signal, key))

Source: patent publication US20260102461A1 (AIKIUM, published 2026)
